Results from paper PMC9050680, “Interaction of human CRX and NRL in live HEK293T cells measured using fluorescence resonance energy transfer (FRET)” (Scientific Reports, 2022).

B1: human NRL with mCherry or EGFP fused to the N-terminus (near the activation domain) (natural protein)
chain: not shown
notes: NRL, human, neural retina-specific leucine zipper protein; coding region cloned in derivatives of pEGFP-N1 with an NLS and a linker to EGFP or mCherry; mNRL (mCherry, acceptor) and eNRL (EGFP, donor) differ only in the fluorophore and are written as one molecule; The discussion speaks of (Gly)5 linkers between the fluorophores and NRL; also called mNRL; eNRL; source: HEK293T, transiently …
B2: human CRX with mCherry or EGFP fused to the N-terminus (near the homeodomain) (natural protein)
chain: not shown
notes: CRX, human, cone-rod homeobox protein; coding region cloned in derivatives of pEGFP-N1 with an NLS and a linker to EGFP or mCherry; mCRX (mCherry, acceptor) and eCRX (EGFP, donor) differ only in the fluorophore and are written as one molecule; mCRX + eCRX is a row of m1 with itself; also called mCRX; eCRX; source: HEK293T, transiently transfected, in live cells (fixed cells for acceptor …)

Target: the molecule itself
Assay: FRET or BRET; FC-FRET: flow cytometry, sensitized emission (three-cube N_FRET, apparent FRET efficiency) in live transiently cotransfected HEK293T cells suspended in PBS; donor EGFP, acceptor mCherry; population means and dependence on expression level compared with unlinked mCh + eG

| Protein | N_FRET (mean apparent FRET efficiency) [%] |
| --- | --- |
| B1 | 2.5 |
| B2 | 3.3 |
